The record followed here is patent US20250250357A1.

Bounds are passed on as bounds.

Experiment [1] has as its target human MSLN-R3-rFc protein (human) (UniProt Q13421). Nature of the experiment: ELISA, antibody 1 nM.
Experiment [2] shares this target. Nature of the experiment: ELISA, antibody 20 nM. Background: ELISA stands for enzyme-linked immunosorbent assay.
For experiment [3] the target is unchanged. The experiment is described as follows: ELISA, antibody 4 nM.
For experiment [4] the target is unchanged. Nature of the experiment: ELISA, antibody 100 nM.
The target is the same in experiment [5]. Nature of the experiment: ELISA, antibody 0.0064 nM.
The target in experiment [6] is human MSLN-R3-3 polypeptide (human). Nature of the experiment: ELISA, coated antigen, antibody 0.001 nM.
Experiment [7] has the same target. Nature of the experiment: ELISA, coated antigen, antibody 1 nM.
For experiment [8] the target is unchanged. The experiment is described as follows: ELISA, coated antigen, antibody 0.01 nM.
For experiment [9] the target is unchanged. Nature of the experiment: ELISA, coated antigen, antibody 0.1 nM.
The target is the same in experiment [10]. The experiment is described as follows: ELISA, coated antigen, antibody 0.0001 nM.
The target is the same in experiment [11]. Nature of the experiment: ELISA, coated antigen, no antibody (blank).
Experiment [12] addresses human MSLN-hFc protein (Acro, Cat. No. MSN-H5253) (human) (UniProt Q13421). The experiment is described as follows: ELISA, coated human MSLN-hFc, antibody 1 nM.
For experiment [13] the target is unchanged. The experiment is described as follows: ELISA, coated human MSLN-hFc, antibody 0.0001 nM.
Experiment [14] shares this target. Nature of the experiment: ELISA, coated human MSLN-hFc, antibody 100 nM.
The target is the same in experiment [15]. Nature of the experiment: ELISA, coated human MSLN-hFc, antibody 10 nM.
The target is the same in experiment [16]. Nature of the experiment: ELISA, coated human MSLN-hFc, antibody 10 nM. This is another data set of the same source.
For experiment [17] the target is unchanged. The experiment is described as follows: ELISA, coated human MSLN-hFc, antibody 1 nM. The source holds these as a separate data set.
For experiment [18] the target is unchanged. Nature of the experiment: ELISA, coated human MSLN-hFc, antibody 100 nM. This is another data set of the same source.
For experiment [19] the target is unchanged. Nature of the experiment: ELISA, coated human MSLN-hFc, antibody 0.1 nM.
For experiment [20] the target is unchanged. Nature of the experiment: ELISA, coated human MSLN-hFc, antibody 0.001 nM.
Experiment [21] has the same target. Nature of the experiment: ELISA, coated human MSLN-hFc, antibody 0.1 nM. The source holds these as a separate data set.
Experiment [22] has the same target. The experiment is described as follows: ELISA, coated human MSLN-hFc, antibody 0.01 nM.
Experiment [23] shares this target. Nature of the experiment: ELISA, coated human MSLN-hFc, antibody 0.01 nM. This is another data set of the same source.
Experiment [24] shares this target. Nature of the experiment: ELISA, coated human MSLN-hFc, antibody 0.001 nM. This is another data set of the same source.
For experiment [25], the target named is monkey MSLN full-length protein (NCBI: XP_028696439.1) on HEK293T cells (monkey). Nature of the experiment: FACS on HEK293T-monkey MSLN cells; antibody […].
Experiment [26] shares this target. The experiment is described as follows: FACS on HEK293T-monkey MSLN cells; antibody 20 nM.
For experiment [27] the target is unchanged. The experiment is described as follows: FACS on HEK293T-monkey MSLN cells; antibody 0.0064 nM.
The target of experiment [28] is monkey MSLN full-length protein expressed on HEK293T cells (HEK293T-monkey MSLN) (monkey). Nature of the experiment: FACS on HEK293T-monkey MSLN cells.
Experiment [29] has as its target monkey MSLN full-length protein (NCBI: XP_028696439.1) on HEK293T cells (monkey). The experiment is described as follows: FACS on HEK293T-monkey MSLN cells; antibody 100 nM.
The target is the same in experiment [30]. Nature of the experiment: FACS on HEK293T-monkey MSLN cells; antibody 0.032 nM.
The target is the same in experiment [31]. The experiment is described as follows: FACS on HEK293T-monkey MSLN cells; antibody 4 nM.
For experiment [32] the target is unchanged. Nature of the experiment: FACS on HEK293T-monkey MSLN cells; antibody 0.8 nM.
Experiment [33] shares this target. Nature of the experiment: FACS on HEK293T-monkey MSLN cells; antibody 0.00128 nM.
Experiment [34] addresses human MSLN-R3 protein (Met487-Ser606 of NCBI AAH09272.1) expressed on HEK293T-hMSLN-R3 cells (human) (UniProt Q13421). Nature of the experiment: FACS on HEK293T-hMSLN-R3 cells.
The target of experiment [35] is human MSLN full-length protein (NCBI: AAH09272.1) expressed on HEK293T-hMSLN-B8 cells (human) (UniProt Q13421). The experiment is described as follows: FACS on HEK293T-hMSLN-B8 cells.
The target of experiment [36] is monkey MSLN full-length protein (NCBI: XP_028696439.1) expressed on HEK293T-monkey MSLN cells (monkey). Nature of the experiment: FACS on HEK293T-monkey MSLN cells.
Experiment [37] has as its target human MSLN protein endogenously expressed on OVCAR3 tumor cells (human) (UniProt Q13421). Nature of the experiment: FACS on OVCAR3 cells.
Experiment [38] addresses human MSLN-FL-his protein (human) (UniProt Q13421). Nature of the experiment: ELISA, antibody 100 nM.

Sequence of human MSLN-hFc protein (Acro, Cat. No. MSN-H5253) (human) (Q13421 other isoform, or with tags, fused parts or gaps limits assumed): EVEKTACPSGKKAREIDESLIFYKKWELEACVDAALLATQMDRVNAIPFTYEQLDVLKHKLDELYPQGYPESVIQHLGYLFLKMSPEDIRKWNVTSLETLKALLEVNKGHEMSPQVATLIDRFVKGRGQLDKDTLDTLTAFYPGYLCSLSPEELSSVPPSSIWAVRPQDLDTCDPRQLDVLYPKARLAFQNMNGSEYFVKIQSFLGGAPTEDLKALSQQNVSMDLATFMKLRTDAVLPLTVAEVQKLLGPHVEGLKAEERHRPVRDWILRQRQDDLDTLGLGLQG
Sequence of human MSLN-R3-rFc protein (human) (Q13421 495-606): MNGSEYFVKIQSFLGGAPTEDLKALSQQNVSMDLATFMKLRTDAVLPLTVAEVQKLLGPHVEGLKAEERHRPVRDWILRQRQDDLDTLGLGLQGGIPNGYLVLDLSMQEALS
Sequence of human MSLN full-length protein (NCBI: AAH09272.1) expressed on HEK293T-hMSLN-B8 cells (human) (Q13421 other isoform, or with tags, fused parts or gaps limits assumed): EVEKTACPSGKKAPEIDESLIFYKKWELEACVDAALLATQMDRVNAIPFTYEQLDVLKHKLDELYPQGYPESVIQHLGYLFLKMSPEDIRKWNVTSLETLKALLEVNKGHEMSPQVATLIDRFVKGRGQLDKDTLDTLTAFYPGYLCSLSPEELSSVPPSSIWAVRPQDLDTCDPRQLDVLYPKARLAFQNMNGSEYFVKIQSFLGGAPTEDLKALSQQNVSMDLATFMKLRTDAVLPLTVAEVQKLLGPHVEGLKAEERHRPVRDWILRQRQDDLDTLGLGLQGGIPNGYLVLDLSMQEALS
Sequence of human MSLN protein endogenously expressed on OVCAR3 tumor cells (human) (Q13421 other isoform, or with tags, fused parts or gaps): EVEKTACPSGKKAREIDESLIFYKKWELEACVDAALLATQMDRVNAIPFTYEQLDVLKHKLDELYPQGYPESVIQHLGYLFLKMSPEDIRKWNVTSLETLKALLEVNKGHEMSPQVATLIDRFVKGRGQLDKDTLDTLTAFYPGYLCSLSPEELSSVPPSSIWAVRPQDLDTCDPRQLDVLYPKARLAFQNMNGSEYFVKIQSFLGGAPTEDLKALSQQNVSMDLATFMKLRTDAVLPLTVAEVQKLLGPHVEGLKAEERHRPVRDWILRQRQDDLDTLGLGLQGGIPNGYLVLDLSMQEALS
Sequence of human MSLN-R3 protein (Met487-Ser606 of NCBI AAH09272.1) expressed on HEK293T-hMSLN-R3 cells (human) (Q13421 495-614): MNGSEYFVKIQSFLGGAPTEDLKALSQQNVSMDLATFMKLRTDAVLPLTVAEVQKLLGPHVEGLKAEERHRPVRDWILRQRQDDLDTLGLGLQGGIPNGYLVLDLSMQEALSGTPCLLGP
Sequence of human MSLN-FL-his protein (human) (Q13421 other isoform, or with tags, fused parts or gaps): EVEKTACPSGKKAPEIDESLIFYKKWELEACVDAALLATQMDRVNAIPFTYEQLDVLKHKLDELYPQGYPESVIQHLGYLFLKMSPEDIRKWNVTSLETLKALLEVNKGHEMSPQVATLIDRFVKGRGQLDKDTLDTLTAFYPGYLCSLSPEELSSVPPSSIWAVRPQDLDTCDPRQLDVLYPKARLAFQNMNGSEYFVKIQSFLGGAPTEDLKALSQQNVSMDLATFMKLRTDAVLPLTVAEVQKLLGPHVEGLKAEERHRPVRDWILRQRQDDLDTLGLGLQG

“anti-human MSLN antibody (purchased from Acro, Cat. No. MSN-M30)”: the OD450 nm in [1] is 0.11; in [2], 0.86; in [3] it was 0.23; in experiment [4], 1.11; in [5] it was 0.16.

“anti-hel-hIgG1 (negative control antibody against hen egg lysozyme)”: the OD450 is 0.06 in experiment [6]; 0.06 in [7]; 0.06 in experiment [8]; 0.06 in experiment [9]; 0.07 in experiment [10]; 0.07 in experiment [11].

With “Tab084 (NC), m971 VH-(G4S)3-VL-his (scFv)”, the OD450 nm in [12] stood at 0.06; in experiment [13], 0.05; in experiment [14], 0.05; in experiment [15], 0.07; in experiment [16], 0.05; in [17], 0.05. The OD450 nm in experiment [18] was 0.07; in experiment [19] it was 0.07; in [20], 0.06; in experiment [21], 0.05; in [22], 0.06; in experiment [23], 0.05. In experiment [24], this substance had an OD450 nm of 0.05.

What is called EC50 is the concentration that produces a half-maximal response. For Tab106 (YP218, hIgG1) (antibody), the FACS fluorescence intensity in experiment [25] is 313; in experiment [26], 2660; in experiment [27] it was 100; in experiment [29], 3290; in experiment [30], 142; in [31] it was 2440. For the same substance, the FACS fluorescence intensity stood at 860 in [32] and 90 in experiment [33]. Besides, the half-maximal effective concentration (EC50) in experiment [28] is < 0.5 nM. In [28], the Maximum mean fluorescence intensity amounted to 12400.

Turning to “hIgG1 negative control antibody (anti-hel-hIgG1, against hen egg lysozyme)”, the Maximum mean fluorescence intensity in experiment [34] turned out to be 102; in [35] it was 267; in [36], 102; in [37], 122.

With “Tab131 (m912, scFv-hIgG1 Fc) (Fc fusion)”, the FACS fluorescence intensity in experiment [25] amounted to 83; in [26] it was 85; in experiment [27], 85; in experiment [29], 87; in experiment [30], 106; in experiment [31], 86. Moreover, the FACS fluorescence intensity was found to be 87 in experiment [32] and 93 in experiment [33]. For the same substance, the OD450 nm in experiment [38] worked out at 0.16.
